Reference: EP4772193A1 (Teijin Pharma Limited, dated 2026)

Legend:
[1] = biological target: T1, recombinant human soluble gpNMB (recombinant human gpNMB-FLAG-His) (human, UniProt Q14956 23-498); experiment: antigen ELISA, vs hGPN18-2_H2L3
T1 sequence: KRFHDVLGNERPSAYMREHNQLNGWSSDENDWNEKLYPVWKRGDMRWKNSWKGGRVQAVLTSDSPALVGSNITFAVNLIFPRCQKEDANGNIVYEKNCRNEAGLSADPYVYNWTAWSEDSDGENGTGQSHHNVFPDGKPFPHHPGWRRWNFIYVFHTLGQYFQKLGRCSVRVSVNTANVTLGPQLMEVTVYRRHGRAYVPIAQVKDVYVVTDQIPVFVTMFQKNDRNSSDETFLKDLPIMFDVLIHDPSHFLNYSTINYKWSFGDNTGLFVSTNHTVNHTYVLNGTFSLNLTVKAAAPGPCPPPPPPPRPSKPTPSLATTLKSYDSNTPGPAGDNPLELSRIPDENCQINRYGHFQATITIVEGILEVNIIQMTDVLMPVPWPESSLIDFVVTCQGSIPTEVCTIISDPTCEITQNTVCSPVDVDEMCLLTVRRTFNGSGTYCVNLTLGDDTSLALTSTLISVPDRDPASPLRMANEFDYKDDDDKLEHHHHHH

[2] = biological target: T1, recombinant human soluble gpNMB …; experiment: antigen ELISA

B1: hGPN18-2_H2L3 VL F94A (antibody, V domains shown)
VH: QVQLVQSGPGLVQPTQTLTLTCSFSGFSLSTSVMGVGWIRQPSGKGLEWLADIWWDDDKDYNPSLKSRLTISKDTSKNQVVLTMTNMDTVDTATYYCARTYYSNYEYYGMDYWGQGTLVTVSS
VL: DIVMTQSPDSLAVSLGERATINCRSSQTIILSNGNTYLEWYQQKPGQPPKLLIYKVSNRFSGVPDRFSGSGSGTDFTLTISSLQAEDVAVYYCAQGSHVPFTFGSGTKLEIKR
Relative binding activity [1]: 0.07 | EC50 [2]: 18 nM

B2: hGPN18-2_H2L3 VL F101A (antibody, V domains shown)
VH: QVQLVQSGPGLVQPTQTLTLTCSFSGFSLSTSVMGVGWIRQPSGKGLEWLADIWWDDDKDYNPSLKSRLTISKDTSKNQVVLTMTNMDTVDTATYYCARTYYSNYEYYGMDYWGQGTLVTVSS
VL: DIVMTQSPDSLAVSLGERATINCRSSQTIILSNGNTYLEWYQQKPGQPPKLLIYKVSNRFSGVPDRFSGSGSGTDFTLTISSLQAEDVAVYYCFQGSHVPATFGSGTKLEIKR
Relative binding activity [1]: 0.69 | EC50 [2]: 7.66 nM

B3: hGPN18-2_H2L3 VL G34A (antibody, V domains shown)
VH: QVQLVQSGPGLVQPTQTLTLTCSFSGFSLSTSVMGVGWIRQPSGKGLEWLADIWWDDDKDYNPSLKSRLTISKDTSKNQVVLTMTNMDTVDTATYYCARTYYSNYEYYGMDYWGQGTLVTVSS
VL: DIVMTQSPDSLAVSLGERATINCRSSQTIILSNANTYLEWYQQKPGQPPKLLIYKVSNRFSGVPDRFSGSGSGTDFTLTISSLQAEDVAVYYCFQGSHVPFTFGSGTKLEIKR
Relative binding activity [1]: 1 | EC50 [2]: 3.94 nM

B4: hGPN18-2_H2L3 VL G96A (antibody, V domains shown)
VH: QVQLVQSGPGLVQPTQTLTLTCSFSGFSLSTSVMGVGWIRQPSGKGLEWLADIWWDDDKDYNPSLKSRLTISKDTSKNQVVLTMTNMDTVDTATYYCARTYYSNYEYYGMDYWGQGTLVTVSS
VL: DIVMTQSPDSLAVSLGERATINCRSSQTIILSNGNTYLEWYQQKPGQPPKLLIYKVSNRFSGVPDRFSGSGSGTDFTLTISSLQAEDVAVYYCFQASHVPFTFGSGTKLEIKR
Relative binding activity [1]: 0.91 | EC50 [2]: 10.8 nM

B5: hGPN18-2_H2L3 VL H98A (antibody, V domains shown)
VH: QVQLVQSGPGLVQPTQTLTLTCSFSGFSLSTSVMGVGWIRQPSGKGLEWLADIWWDDDKDYNPSLKSRLTISKDTSKNQVVLTMTNMDTVDTATYYCARTYYSNYEYYGMDYWGQGTLVTVSS
VL: DIVMTQSPDSLAVSLGERATINCRSSQTIILSNGNTYLEWYQQKPGQPPKLLIYKVSNRFSGVPDRFSGSGSGTDFTLTISSLQAEDVAVYYCFQGSAVPFTFGSGTKLEIKR
Relative binding activity [1]: 0.8 | EC50 [2]: 5.69 nM

B6: hGPN18-2_H2L3 VL I29A (antibody, V domains shown)
VH: QVQLVQSGPGLVQPTQTLTLTCSFSGFSLSTSVMGVGWIRQPSGKGLEWLADIWWDDDKDYNPSLKSRLTISKDTSKNQVVLTMTNMDTVDTATYYCARTYYSNYEYYGMDYWGQGTLVTVSS
VL: DIVMTQSPDSLAVSLGERATINCRSSQTAILSNGNTYLEWYQQKPGQPPKLLIYKVSNRFSGVPDRFSGSGSGTDFTLTISSLQAEDVAVYYCFQGSHVPFTFGSGTKLEIKR
Relative binding activity [1]: 0.75 | EC50 [2]: 6.04 nM

B7: hGPN18-2_H2L3 VL I30A (antibody, V domains shown)
VH: QVQLVQSGPGLVQPTQTLTLTCSFSGFSLSTSVMGVGWIRQPSGKGLEWLADIWWDDDKDYNPSLKSRLTISKDTSKNQVVLTMTNMDTVDTATYYCARTYYSNYEYYGMDYWGQGTLVTVSS
VL: DIVMTQSPDSLAVSLGERATINCRSSQTIALSNGNTYLEWYQQKPGQPPKLLIYKVSNRFSGVPDRFSGSGSGTDFTLTISSLQAEDVAVYYCFQGSHVPFTFGSGTKLEIKR
Relative binding activity [1]: 1 | EC50 [2]: 4.1 nM

B8: hGPN18-2_H2L3 VL K55A (antibody, V domains shown)
VH: QVQLVQSGPGLVQPTQTLTLTCSFSGFSLSTSVMGVGWIRQPSGKGLEWLADIWWDDDKDYNPSLKSRLTISKDTSKNQVVLTMTNMDTVDTATYYCARTYYSNYEYYGMDYWGQGTLVTVSS
VL: DIVMTQSPDSLAVSLGERATINCRSSQTIILSNGNTYLEWYQQKPGQPPKLLIYAVSNRFSGVPDRFSGSGSGTDFTLTISSLQAEDVAVYYCFQGSHVPFTFGSGTKLEIKR
Relative binding activity [1]: 0.31 | EC50 [2]: 48.3 nM

B9: hGPN18-2_H2L3 VL L31A (antibody, V domains shown)
VH: QVQLVQSGPGLVQPTQTLTLTCSFSGFSLSTSVMGVGWIRQPSGKGLEWLADIWWDDDKDYNPSLKSRLTISKDTSKNQVVLTMTNMDTVDTATYYCARTYYSNYEYYGMDYWGQGTLVTVSS
VL: DIVMTQSPDSLAVSLGERATINCRSSQTIIASNGNTYLEWYQQKPGQPPKLLIYKVSNRFSGVPDRFSGSGSGTDFTLTISSLQAEDVAVYYCFQGSHVPFTFGSGTKLEIKR
Relative binding activity [1]: 0.41 | EC50 [2]: 20.7 nM

B10: hGPN18-2_H2L3 VL L38A (antibody, V domains shown)
VH: QVQLVQSGPGLVQPTQTLTLTCSFSGFSLSTSVMGVGWIRQPSGKGLEWLADIWWDDDKDYNPSLKSRLTISKDTSKNQVVLTMTNMDTVDTATYYCARTYYSNYEYYGMDYWGQGTLVTVSS
VL: DIVMTQSPDSLAVSLGERATINCRSSQTIILSNGNTYAEWYQQKPGQPPKLLIYKVSNRFSGVPDRFSGSGSGTDFTLTISSLQAEDVAVYYCFQGSHVPFTFGSGTKLEIKR
Relative binding activity [1]: 1.06 | EC50 [2]: 4.15 nM

B11: hGPN18-2_H2L3 VL N33A (antibody, V domains shown)
VH: QVQLVQSGPGLVQPTQTLTLTCSFSGFSLSTSVMGVGWIRQPSGKGLEWLADIWWDDDKDYNPSLKSRLTISKDTSKNQVVLTMTNMDTVDTATYYCARTYYSNYEYYGMDYWGQGTLVTVSS
VL: DIVMTQSPDSLAVSLGERATINCRSSQTIILSAGNTYLEWYQQKPGQPPKLLIYKVSNRFSGVPDRFSGSGSGTDFTLTISSLQAEDVAVYYCFQGSHVPFTFGSGTKLEIKR
Relative binding activity [1]: 0.82 | EC50 [2]: 3.66 nM

B12: hGPN18-2_H2L3 VL N35A (antibody, V domains shown)
VH: QVQLVQSGPGLVQPTQTLTLTCSFSGFSLSTSVMGVGWIRQPSGKGLEWLADIWWDDDKDYNPSLKSRLTISKDTSKNQVVLTMTNMDTVDTATYYCARTYYSNYEYYGMDYWGQGTLVTVSS
VL: DIVMTQSPDSLAVSLGERATINCRSSQTIILSNGATYLEWYQQKPGQPPKLLIYKVSNRFSGVPDRFSGSGSGTDFTLTISSLQAEDVAVYYCFQGSHVPFTFGSGTKLEIKR
Relative binding activity [1]: 1.11 | EC50 [2]: 3.08 nM

B13: hGPN18-2_H2L3 VL N58A (antibody, V domains shown)
VH: QVQLVQSGPGLVQPTQTLTLTCSFSGFSLSTSVMGVGWIRQPSGKGLEWLADIWWDDDKDYNPSLKSRLTISKDTSKNQVVLTMTNMDTVDTATYYCARTYYSNYEYYGMDYWGQGTLVTVSS
VL: DIVMTQSPDSLAVSLGERATINCRSSQTIILSNGNTYLEWYQQKPGQPPKLLIYKVSARFSGVPDRFSGSGSGTDFTLTISSLQAEDVAVYYCFQGSHVPFTFGSGTKLEIKR
Relative binding activity [1]: 1.04 | EC50 [2]: 2.86 nM

B14: hGPN18-2_H2L3 VL P100A (antibody, V domains shown)
VH: QVQLVQSGPGLVQPTQTLTLTCSFSGFSLSTSVMGVGWIRQPSGKGLEWLADIWWDDDKDYNPSLKSRLTISKDTSKNQVVLTMTNMDTVDTATYYCARTYYSNYEYYGMDYWGQGTLVTVSS
VL: DIVMTQSPDSLAVSLGERATINCRSSQTIILSNGNTYLEWYQQKPGQPPKLLIYKVSNRFSGVPDRFSGSGSGTDFTLTISSLQAEDVAVYYCFQGSHVAFTFGSGTKLEIKR
Relative binding activity [1]: 0.84 | EC50 [2]: 4.22 nM
